Here are results for one molecule from patent US20250092148A1 (Kyowa Kirin, published 2025).

One assay deals with T1, human CD131 R221A (human, UniProt P32927 17-897).
T1 construct: whole, on cells; also called R221 Ala substitution
T1 sequence (looked up): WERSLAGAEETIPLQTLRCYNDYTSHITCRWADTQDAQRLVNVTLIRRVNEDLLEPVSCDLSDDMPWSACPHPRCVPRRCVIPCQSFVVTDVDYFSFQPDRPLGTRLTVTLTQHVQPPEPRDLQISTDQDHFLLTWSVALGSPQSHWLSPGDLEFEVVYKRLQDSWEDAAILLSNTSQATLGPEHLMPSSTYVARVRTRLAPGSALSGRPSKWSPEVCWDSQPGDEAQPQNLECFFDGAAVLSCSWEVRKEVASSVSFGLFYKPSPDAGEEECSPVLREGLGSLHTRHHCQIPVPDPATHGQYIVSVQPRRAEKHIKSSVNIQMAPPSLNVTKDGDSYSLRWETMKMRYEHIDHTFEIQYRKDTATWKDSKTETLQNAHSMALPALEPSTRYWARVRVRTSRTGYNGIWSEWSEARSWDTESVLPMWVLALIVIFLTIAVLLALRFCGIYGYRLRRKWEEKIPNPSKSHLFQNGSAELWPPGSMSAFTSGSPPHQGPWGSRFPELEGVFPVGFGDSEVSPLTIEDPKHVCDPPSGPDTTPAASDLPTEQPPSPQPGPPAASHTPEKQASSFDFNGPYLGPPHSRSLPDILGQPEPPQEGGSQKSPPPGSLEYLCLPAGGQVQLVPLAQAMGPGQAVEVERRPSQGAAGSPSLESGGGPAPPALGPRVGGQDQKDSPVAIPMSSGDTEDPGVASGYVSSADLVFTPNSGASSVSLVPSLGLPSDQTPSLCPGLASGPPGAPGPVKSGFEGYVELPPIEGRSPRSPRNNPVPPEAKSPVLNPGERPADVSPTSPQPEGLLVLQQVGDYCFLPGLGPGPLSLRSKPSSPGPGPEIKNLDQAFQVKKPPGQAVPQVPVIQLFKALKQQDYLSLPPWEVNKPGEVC
Kind of assay: flow cytometry, Fab on HEK-293T cells expressing the mutant; labels of this column stand one row too low, mutant assigned after shifting them up (text: R221 is an epitope residue).

Another assay deals with T2, human CD131 P199A (human, UniProt P32927 17-897).
T2 construct: whole, on cells
T2 sequence (looked up): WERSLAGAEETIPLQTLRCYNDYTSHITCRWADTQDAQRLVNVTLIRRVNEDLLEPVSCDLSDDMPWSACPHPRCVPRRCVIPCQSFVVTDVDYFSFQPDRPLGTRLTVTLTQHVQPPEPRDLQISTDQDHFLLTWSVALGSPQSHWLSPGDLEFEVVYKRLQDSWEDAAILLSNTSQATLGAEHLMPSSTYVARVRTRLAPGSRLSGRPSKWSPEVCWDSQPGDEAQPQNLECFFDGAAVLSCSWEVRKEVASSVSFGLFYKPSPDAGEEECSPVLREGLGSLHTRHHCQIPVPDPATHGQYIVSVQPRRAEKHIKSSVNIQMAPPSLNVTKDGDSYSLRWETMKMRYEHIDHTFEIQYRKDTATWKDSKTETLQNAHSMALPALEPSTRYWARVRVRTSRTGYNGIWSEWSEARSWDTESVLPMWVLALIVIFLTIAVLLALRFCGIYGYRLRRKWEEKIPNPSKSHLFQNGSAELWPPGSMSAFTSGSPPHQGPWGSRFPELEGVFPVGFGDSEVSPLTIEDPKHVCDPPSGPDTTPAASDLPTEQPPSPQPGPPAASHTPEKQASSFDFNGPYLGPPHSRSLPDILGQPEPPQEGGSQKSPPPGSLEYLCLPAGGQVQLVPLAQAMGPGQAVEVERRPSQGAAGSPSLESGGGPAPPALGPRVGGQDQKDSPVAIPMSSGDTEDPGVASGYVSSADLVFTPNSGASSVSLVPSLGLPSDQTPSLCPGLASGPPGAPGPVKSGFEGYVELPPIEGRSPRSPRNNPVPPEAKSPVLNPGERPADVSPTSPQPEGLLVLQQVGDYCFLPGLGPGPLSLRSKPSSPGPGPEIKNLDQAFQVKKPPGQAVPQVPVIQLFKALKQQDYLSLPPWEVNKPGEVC
Put plainly: flow cytometry, Fab on HEK-293T cells expressing the mutant; labels of this column stand one row too low, mutant assigned after shifting them up.

The target in another assay is T3, human CD131 H147A (human, UniProt P32927 17-897).
T3 construct: whole, on cells
T3 sequence (looked up): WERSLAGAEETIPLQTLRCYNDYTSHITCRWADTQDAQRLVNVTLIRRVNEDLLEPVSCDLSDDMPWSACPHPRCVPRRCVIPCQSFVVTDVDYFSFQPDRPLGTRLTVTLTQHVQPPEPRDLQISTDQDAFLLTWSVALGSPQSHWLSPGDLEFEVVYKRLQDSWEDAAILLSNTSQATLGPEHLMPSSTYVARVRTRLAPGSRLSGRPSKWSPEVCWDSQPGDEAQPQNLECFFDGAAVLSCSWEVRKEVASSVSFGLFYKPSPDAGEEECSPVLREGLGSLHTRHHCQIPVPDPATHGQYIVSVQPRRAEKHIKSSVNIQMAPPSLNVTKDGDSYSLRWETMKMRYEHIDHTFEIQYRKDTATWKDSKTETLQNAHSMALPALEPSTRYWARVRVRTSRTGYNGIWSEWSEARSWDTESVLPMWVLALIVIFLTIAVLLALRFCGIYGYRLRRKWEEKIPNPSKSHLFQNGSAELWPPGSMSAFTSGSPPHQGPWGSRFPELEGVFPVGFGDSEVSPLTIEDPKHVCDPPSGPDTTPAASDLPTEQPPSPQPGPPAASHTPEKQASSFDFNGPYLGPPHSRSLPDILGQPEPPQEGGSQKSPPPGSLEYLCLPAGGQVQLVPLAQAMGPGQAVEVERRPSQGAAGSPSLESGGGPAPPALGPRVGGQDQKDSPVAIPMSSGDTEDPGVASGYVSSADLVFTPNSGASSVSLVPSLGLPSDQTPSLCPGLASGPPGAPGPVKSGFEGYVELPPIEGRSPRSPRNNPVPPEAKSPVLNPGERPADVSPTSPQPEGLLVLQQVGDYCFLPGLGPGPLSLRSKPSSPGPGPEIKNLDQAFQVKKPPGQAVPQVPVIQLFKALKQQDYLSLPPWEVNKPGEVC
Described as above.

B1: anti-CD131 antibody 131-B2, Fab (Fab, V domains shown)
VH: QVQLVQSGAEVKEPGASVKISCKASGYTFTNDYMHWVRQAPGQGLEWMGIINPTGGGTSYAQKFRGRVTMTRDTSTSTVYMELSSLRSEDTAVFYCARERYYGSGTYFNIGLWYFDLWGRGTLVTVSS
VL: not shown
notes: Fab made from the antibody by an enzyme treatment
As for B1, the “Binding Reactivity (% WT)” value with human CD131 R221A is 38 % WT; with human CD131 P199A, 96.8 % WT; with human CD131 H147A, 110 % WT.
